Reference: the supplement of paper PMC12042874
± gives the uncertainty stated by the source.

Test: amyloid nucleation score (Sup35N fusion, yeast selection) (log enrichment); library NNK1; higher = more nucleation; inactive = no reads after selection
How it was run: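 Sup35N fusions to peptides of 20 random codons were expressed in psi-negative yeast, induced 24 hours with 100 μM copper sulfate, and grown 7 days at 30°C on medium lacking adenine and uracil. Input and output plasmid inserts were sequenced by Illumina. The nucleation score is the DiMSum log enrichment of output over input reads, centred on the mode score of non-aggregating sequences. Sequences with under 100 input reads were excluded.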

Compared with HLSVMMGFGFRTFNMIVMVC, PTEKYAESLMERTYFRAEMK is lower in amyloid nucleation score: 1.05 ± 0.26 for the first, 0.315 ± 0.34 for the second.

SFYILTHTNFGTFPLFDDRH and SRPDVLYCDIFHFRHQILSF are within error of each other in amyloid nucleation score: -0.897 ± 0.69 for the first, -0.173 ± 0.75 for the second.

LPTSTVSCQNWDTLLTLCSG and ILLELVASTVVLPLIT are within error of each other in amyloid nucleation score: -0.094 ± 0.77 for the first, 0.165 ± 0.43 for the second.

Compared with HFGWNLGPMHTMKSSV, LARYMIYWGLMSAGRHRRHY is lower in amyloid nucleation score: 0.464 ± 0.49 for the first, -0.46 ± 0.43 for the second.

Compared with KSVVLHWYAYSMLYPLWNLV, LARTMYCYIVSEKVLWSGVG is higher in amyloid nucleation score: 0.511 ± 0.53 for the first, 2.15 ± 0.1 for the second.

Compared with HKNLQIVTFFVEYVSETPPG, QTRVCTNDKSSFTLQTGRW is higher in amyloid nucleation score: -1.05 ± 1 for the first, 3.26 ± 0.14 for the second.

Going from CDWNLSNGGYGDHARCSGSA to LMLPFVYS, the amyloid nucleation score falls from 5.13 ± 0.069 to 0.392 ± 0.37.

FLRRIGMGYIRLRVLGSIFL and KFIVMIE are within error of each other in amyloid nucleation score: 0.854 ± 0.49 for the first, 0.386 ± 0.22 for the second.

MLRTMG and FSGHNC are within error of each other in amyloid nucleation score: 0.746 ± 0.5 for the first, 0.299 ± 0.35 for the second.

VSNERSWMRCFFMGSRIAHG and ICDRAWRCFKTKSTQPVTVS are within error of each other in amyloid nucleation score: -0.735 ± 0.4 for the first, -0.19 ± 0.36 for the second.

MRVGIWDKMRSLRCDISAC and SLCRGATGGDGWWGVCSSA are within error of each other in amyloid nucleation score: 0.293 ± 0.66 for the first, 0.614 ± 0.91 for the second.

IVLWCTWYYNWNWPSALFRM and KNAYHFRG are within error of each other in amyloid nucleation score: -0.192 ± 0.78 for the first, 0.113 ± 0.97 for the second.

Compared with YIVYFESRN, YYYYPNGDCEKK is lower in amyloid nucleation score: 0.438 ± 0.16 for the first, -0.657 ± 0.63 for the second.

LILILNGMRNWSLAEDGACS and YKKGYWSGDVAFVWWFTYMC are within error of each other in amyloid nucleation score: 0.326 ± 0.85 for the first, 0.959 ± 0.54 for the second.

SIPYSRRVF and VLWHGLVVRSGNVEIVRSMC are within error of each other in amyloid nucleation score: 0.103 ± 0.41 for the first, -0.175 ± 0.96 for the second.

MERPGNCVGWRRCPLHVTNG and YTEQACDSVP are within error of each other in amyloid nucleation score: -0.292 ± 1.2 for the first, -0.788 ± 0.89 for the second.

YIPQSPDDSFWEVMFYLFLS and LNMLMMVGVWGYFVITIHTI are within error of each other in amyloid nucleation score: -0.43 ± 1.2 for the first, 0.68 ± 0.71 for the second.

LYAAYCRQGTTHAIR and MHHCSFSSLDFTVHK are within error of each other in amyloid nucleation score: -0.389 ± 0.54 for the first, -1.02 ± 2.4 for the second.

First: LTRGQSLPMCATSVFEEYSH
Second: GRLCPLRSKTSFNCY
The amyloid nucleation score of the first is higher: 0.325 ± 0.43 for the first, -1.81 ± 1.3 for the second.

Compared with CAVQQYRNRRGNM, KFFCCN is higher in amyloid nucleation score: 0.152 ± 0.65 for the first, 7.776 ± 0.076 for the second.

First: VDSVLIWIMFAAMGSKCPG
Second: PKGIGGGCARTYRHRVRGSR
The amyloid nucleation score of the first is higher: 1.77 ± 0.23 for the first, 0.184 ± 0.64 for the second.

Compared with LGLTYWCYNFIQGDVFPPVQ, TALRLTSSSIKIATQVDLKF is lower in amyloid nucleation score: 3.46 ± 0.15 for the first, 2.06 ± 0.16 for the second.

Compared with TFASTS, THQARVLNNVRALRSTFALL is higher in amyloid nucleation score: 0.002 ± 0.36 for the first, 2.5 ± 0.12 for the second.

Compared with VRLNNCNLFFCYMTRIAFAE, NVIRTQQSR is lower in amyloid nucleation score: 4.96 ± 0.067 for the first, 0.208 ± 0.52 for the second.

RWGLRQIMVVENFIHRWVCP and VSVGR are within error of each other in amyloid nucleation score: 1.04 ± 0.79 for the first, -0.153 ± 1.4 for the second.

LPSDSFAVI and LQLCLPVFNHVMHVNWMRFY are within error of each other in amyloid nucleation score: 0.483 ± 0.81 for the first, -0.837 ± 2.4 for the second.

IVVLLKNRS and KMRILWVV are within error of each other in amyloid nucleation score: 0.488 ± 0.47 for the first, 0.945 ± 0.51 for the second.

ALPIMKLMACVCGQKGMTYA and SSGYGECAFVT are within error of each other in amyloid nucleation score: -0.047 ± 0.69 for the first, -0.055 ± 0.33 for the second.

EFVGVGNIVPFTTSWLIMGR and WAVSGVDKVTRLGSEGVMQS are within error of each other in amyloid nucleation score: 0.271 ± 0.2 for the first, -0.809 ± 0.9 for the second.

Going from TDNTVVVMHWFHTFSPGARK to GMSALYSGDVL, the amyloid nucleation score falls from 2.08 ± 0.28 to -0.118 ± 0.57.

CDYAVGHNVDFYYLTSNPSG and SLLMRIS are within error of each other in amyloid nucleation score: -0.301 ± 0.53 for the first, -0.434 ± 0.61 for the second.

RCFMFSTGEALTNEDRSLRR and YWLSTTIRYVCEVQATPCWI are within error of each other in amyloid nucleation score: 1.12 ± 0.6 for the first, -1.31 ± 2.7 for the second.

RRVGLVASDTGRGEWWTRSM and TNLLSLMMFDSKCIISEGIM are within error of each other in amyloid nucleation score: -0.015 ± 0.55 for the first, -0.567 ± 1.7 for the second.

First: SEGMYSRMAIEWLSGE
Second: APPLSFEFL
The amyloid nucleation score of the first is lower: 1.21 ± 0.69 for the first, 3.06 ± 0.092 for the second.

GYNNRRDFPLSMPCRH and FSDQTFSDLGMIEFRGFLWS are within error of each other in amyloid nucleation score: -0.363 ± 0.88 for the first, 0.343 ± 0.39 for the second.

YTVMVVI and VANTCWQMMFLRMLSYFLRV are within error of each other in amyloid nucleation score: 1.44 ± 0.4 for the first, 0.687 ± 0.44 for the second.

AWDVLMHM and IRLKYSGHAILFHETKNKHA are within error of each other in amyloid nucleation score: 0.248 ± 0.49 for the first, 0.511 ± 0.42 for the second.

YYFRFCREVIARLGMDMSSK and LFFMVLFNKSTEFERLFHIV are within error of each other in amyloid nucleation score: -0.341 ± 0.29 for the first, -0.633 ± 0.56 for the second.

NYFSQKWFTTGRTPRMMDMW and LQDFGKHPTLRCTVYRLHRP are within error of each other in amyloid nucleation score: -0.007 ± 0.32 for the first, -1.02 ± 0.83 for the second.

In the case of GLRVPPHDVLMSIARLDVSK, the amyloid nucleation score is reported as “inactive”.
With PFINVLSICLLIWALVPVDS the amyloid nucleation score was “inactive”.
With HVQIILYLSFKTRRLVDLCL the amyloid nucleation score was “inactive”.
With VCLRLARWILHQKHTYVYWY the amyloid nucleation score was “inactive”.
In the case of GYSIDIP, the amyloid nucleation score is reported as “inactive”.
In the case of MTTHVRWFNGLMSP, the amyloid nucleation score is reported as “inactive”.
With ICIYNSGIGLTGVRVWVQGL the amyloid nucleation score was “inactive”.
In the case of VLSDSDINMRLEKEFYVIIS, the amyloid nucleation score is reported as “inactive”.
